In patent US20240150466A1 (DYNAMICURE BIOTECHNOLOGY, published 2024):
Residue numbers refer to the chain shown, from its start. Where two headings read alike, the source gives them in different places.

What was measured:
[1] = molecular target: T1, human IGFBP7 recombinant protein (UniProt Q16270 27-282, biotinylated with EZ-LINK NHS-PEG4 biotin in the BLI assays (sites not given)); assay: BLI
T1 chain: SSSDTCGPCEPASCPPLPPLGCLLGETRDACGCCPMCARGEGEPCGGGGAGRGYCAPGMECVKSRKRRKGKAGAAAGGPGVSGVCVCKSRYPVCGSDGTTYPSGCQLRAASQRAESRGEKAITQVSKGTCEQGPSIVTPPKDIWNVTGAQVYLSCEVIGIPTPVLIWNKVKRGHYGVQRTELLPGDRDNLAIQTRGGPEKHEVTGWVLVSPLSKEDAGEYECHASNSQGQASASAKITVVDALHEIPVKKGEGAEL

[2] = molecular target: T2, mouse IGFBP7 recombinant protein (mouse, UniProt Q61581 26-281, biotinylated with EZ-LINK NHS-PEG4 biotin in the BLI assays (sites not given)); assay: BLI
T2 chain: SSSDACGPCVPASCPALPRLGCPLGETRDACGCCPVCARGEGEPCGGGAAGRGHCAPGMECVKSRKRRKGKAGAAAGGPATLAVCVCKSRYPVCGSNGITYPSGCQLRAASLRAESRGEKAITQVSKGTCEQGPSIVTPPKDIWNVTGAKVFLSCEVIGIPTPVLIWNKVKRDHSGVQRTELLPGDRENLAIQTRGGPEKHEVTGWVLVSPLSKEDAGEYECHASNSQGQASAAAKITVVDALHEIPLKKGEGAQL

[3] = molecular target: T3, His-tagged human IGFBP7 recombinant protein (human, UniProt Q16270 27-282); assay: flow cytometry blockade assay: nanobody 50 ug/mL pre-incubated with His-tagged human IGFBP7 1 ug/mL, then human CD93 CHO cells (FIG. 14)
T3 construct: not shown: His tag
T3 sequence: T1 chain
Method: Anti-IGFBP7 nanobodies and nanobody-Fc fusions (50 μg/mL) generated in previous examples was incubated with His-tagged human IGFBP7 recombinant protein (1 μg/mL) for 30 minutes in 4° C. Human CD93 expressing CHO cells (1×10⁵ per well) were treated the mixture for 30 minutes at 4° C. Then the cells were washed with FACS buffer and incubated with anti-IGFBP7 monoclonal rabbit antibody (Sino Biological Inc, Catalog #13100-R003) at 1 μg/mL for 30 minutes in 4° C. After incubation, the cells were washed with FACS buffer and incubated with PE-conjugated anti-rabbit IgG antibody ([…]) for 30 minutes in 4° C. After washing with FACS buffer twice, the samples were analyzed and data acquired in NovoCyte Flow.

[4] = molecular target: T1, human IGFBP7 recombinant protein; assay: BLI
[5] = molecular target: T2, mouse IGFBP7 recombinant protein; assay: BLI
[6] = molecular target: T4, human IGFBP7 recombinant protein (human, UniProt Q16270 27-282, biotinylated with EZ-LINK NHS-PEG4 biotin in the BLI assays (sites not given)); assay: BLI (Octet QKe), biotinylated IGFBP7 on streptavidin biosensors (FIG. 9)
T4 construct: Soluble protein used for ELISA coating and, biotinylated, on streptavidin biosensors (Octet); also called hIGFBP7; biotinylated IGFBP7 protein
T4 sequence: T1 chain
Method: (§1) The binding affinity of anti-IGFBP7 nanobody Fc-fusion constructs (e.g., VHH-Fc-fusion constructs) were determined with bio-layer interferometry (BLI) using Octet QKe (Fortebio). Human, mouse, and cynomolgus IGFBP7 were biotinylated using EZ-LINK NHS-PEG4 biotin (Thermo Fisher Scientific). Streptavidin biosensors (ForteBio) were used to load biotinylated IGFBP7 protein (300 seconds in 5 μg/mL). Baseline was stabilized for 60 seconds in 1× kinetics buffer (ForteBio) before anti-IGFBP7 Fc-fucion proteins (serial dilution) were allowed to associate for 300 seconds with captured hIGFBP7 or mIGFBP7. Then the sensors were dissociated in 1× kinetics buffer for 600 seconds. Data analysis was performed on ForteBio Data Analysis HT 11.1 software.

[7] = molecular target: T5, cynomolgus IGFBP7 recombinant protein (cynomolgus); assay: BLI
T5 chain: T1 chain with S13A, E215D

[8] = molecular target: T2, mouse IGFBP7 recombinant protein; assay: BLI
[9] = molecular target: T6, mouse IGFBP7 recombinant protein (mouse, UniProt Q61581 26-281, limits assumed, biotinylated with EZ-LINK NHS-PEG4 biotin in the BLI assays (sites not given)); assay: BLI (Octet QKe), biotinylated IGFBP7 on streptavidin biosensors (FIG. 10)
T6 construct: Soluble protein in ELISA and BLI; also called mIGFBP7
T6 sequence (looked up): T2 chain
Method: as §1

[10] = molecular target: T1, human IGFBP7 recombinant protein; assay: BLI
[11] = molecular target: T7, mouse IGFBP7 displayed on cells (HEK293T or CHO-K1) (mouse, UniProt Q61581 26-281); assay: FACS on mIGFBP7-expressing CHO-K1 cells (FIG. 5)
T7 construct: whole, on cells;domain: CD80 transmembrane domain; also called mIGFBP7; mIGFBP7-HEK cells; not shown: linker; CD80 transmembrane domain
T7 sequence (looked up): T2 chain

[12] = molecular target: T8, human IGFBP7 displayed on HEK293T cells (human, UniProt Q16270 27-282); assay: flow cytometry on human IGFBP7 displaying HEK293T cells, nanobody 10 ug/ml, APC anti-HIS detection
T8 construct: domain: CD80 transmembrane domain; signal peptide stated as residues 1-26; also called hIGFBP7; hIGFBP7-HEK cells; not shown: linker; CD80 transmembrane domain
T8 sequence: T1 chain
Method: (§2) Human IGFBP7 and mouse IGFBP7 displaying HEK293T cells were detached by incubation with TrypLE reagents (Thermos Fisher), which preserves the integrity of IGFBP7 on the cell surface. Then the cells were incubated with anti-IGFBP7 nanobodies at 10 μg/ml for 30 minutes in 4° C. After washing by FACS buffer, the cells were incubated with APC conjugated anti-HIS antibodies (Biolegend) for 30 minutes in 4° C. After washing by FACS buffer twice, the samples were acquired in NovoCyte Flow Cytometer and analyzed by NovoExpress software.

[13] = molecular target: T7, mouse IGFBP7 displayed on cells …; assay: flow cytometry on mouse IGFBP7 displaying HEK293T cells, nanobody 10 ug/ml, APC anti-HIS detection
Method: as §2

[14] = molecular target: T6, mouse IGFBP7 recombinant protein; assay: ELISA
[15] = molecular target: T4, human IGFBP7 recombinant protein; assay: ELISA

B1: A4-mIgG2a nanobody Fc-fusion (Fc fusion)
chain: VQLQESGGGLVQPGGSLRLSCAASGTFTINTYLWYRQPPGKQREFVAAITRGGSINYADSVKGRFTISRDNAKKTVYLQMNSLKPEDTAVYVCNIKAHPNPWGFDNDYWGQGTQVTVSS
Q: For B1, which Kd [1] is on record?
A: The Kd was 1.2 nM.

Q: And the Kd [2]?
A: Its Kd is 0.0078 nM.

B2: anti-IGFBP7 nanobody A03 (VHH)
VHH: B1 chain with P13A, T28S, R51S
notes: Llama nanobody expressed in E. coli as His6-tagged protein; also called A3; not shown: His6 tag
Q: B2 was tested. Which “percent blocking of the CD93-IGFBP7 interaction” value (“percent blocking” for short) [3] did it give?
A: The value was no less than 50%.

B3: anti-IGFBP7 nanobody A04 (VHH)
VHH: B1 chain
notes: Llama nanobody expressed in E. coli as His6-tagged protein; also called A4; A4 VHH; not shown: His6 tag
Q: With B3 as the binder, how does the “percent blocking” value [3] read?
A: The value was no less than 50%.

B4: A1-mIgG1 nanobody Fc-fusion (Fc fusion)
chain: VQLQESGGGLVQAGGSLRLSCAASGSLFAIDKWGWYRQVAGNERELVAWRYSPVSINYGDSVKGRFTVSGDSSRKRVYLQMNSLKPDDTAVYRCAAVISGAWYWGQGTQVTVSS
notes: VHH fused with mIgG1 Fc fragment, expressed in Expi293 cells; also called monospecific A1-mIgG1; not shown: mouse IgG1 Fc fragment (mIgG1 Fc)
Q: B4 was tested. Which Kd [4] did it give?
A: The Kd was 3.82 nM.

Q: And the Kd [5]?
A: Its Kd is 25.8 nM.

Q: Does B4 bind [6]?
A: Result: binds

Q: What about the Kd [7] of the same binder?
A: The Kd was 3.19 nM.

Q: What about the Kd [8] of the same binder?
A: Its Kd is 25.8 nM.

Q: Does B4 bind [9]?
A: Result: binds

Q: And the Kd [10]?
A: The Kd was 3.82 nM.

B5: anti-IGFBP7 nanobody Fc-fusion construct derived from A1 (Fc isotype not told) (Fc fusion)
chain: B4 chain
notes: may be the same as A1-mIgG2a or A1-mIgG1; not shown: mouse Fc fragment, mIgG2a or mIgG1
Q: Does B5 bind [11]?
A: Result: binds

B6: anti-IGFBP7 nanobody A01 (VHH)
VHH: B4 chain
notes: Llama nanobody expressed in E. coli as His6-tagged protein; also called A1; A1 VHH; not shown: His6 tag
Q: Which results are given for B6?
A: binding result [12]: binds; binding result [13]: binds; binding result [14]: binds; binding result [15]: binds

B7: D4-mIgG2a nanobody Fc-fusion (Fc fusion)
chain: VQLQESGGGLVQTGGSLRLSCAASGRSFTFSSYAMGWFRHAPGKEREFLTAITWSGDYTYYTDSVKGRSTISRDNAKNTVYLQLNNLKPEDTAVYYCAAKFSQVSAFFATVSEYEYWGQGTQVTVSS
notes: VHH fused with mIgG2a Fc fragment, expressed in Expi293 cells; also called monospecific D4-mIgG2a; not shown: mouse IgG2a Fc fragment (mIgG2a Fc)
Q: Which Kd [4] does the source give for B7 here?
A: The Kd was 1.22 nM.

Q: And the Kd [5]?
A: Its Kd is 10.2 nM.

Q: Does B7 bind [6]?
A: Result: binds

Q: And the Kd [1]?
A: Its Kd is 1.16 nM.

Q: What about the Kd [2] of the same binder?
A: The Kd was 12.1 nM.

Q: What about the Kd [7] of the same binder?
A: Its Kd is 1.84 nM.

Q: And the Kd [8]?
A: The Kd was 10.2 nM.

Q: Does B7 bind [9]?
A: Result: binds

Q: And the Kd [10]?
A: Its Kd is 1.22 nM.

B8: anti-IGFBP7 nanobody D04 (VHH)
VHH: B7 chain
notes: Llama nanobody expressed in E. coli as His6-tagged protein; also called D4; D4 VHH; not shown: His6 tag
Q: Does B8 bind [12]?
A: Result: binds

Q: Does B8 bind [13]?
A: Result: binds

Q: Does B8 bind [14]?
A: Result: binds

Q: Does B8 bind [15]?
A: Result: binds

B9: anti-IGFBP7 nanobody Fc-fusion construct derived from D4 (Fc isotype not told) (Fc fusion)
chain: B7 chain
notes: may be the same as D4-mIgG2a; not shown: mouse Fc fragment, mIgG2a or mIgG1
Q: Does B9 bind [11]?
A: Result: binds

B10: anti-IGFBP7 nanobody F12 (VHH)
VHH: VQLQESGGGLVQPGGSLRLSCAASGFTFSINTYLWYRQPPGKQREFVAAITSGGSINYADSVKGRFTISRDNAKKTVYLQMNSLKPEDTAVYVCNIKAHPNPWGFDNDYWGQGTQVTVSS
notes: Llama nanobody expressed in E. coli as His6-tagged protein; not shown: His6 tag
Q: Does B10 bind [12]?
A: Result: binds

B11: bispecific anti-IGFBP7 nanobody Fc-fusion construct A1D4-mIgG2a (bispecific antibody)
chain: VQLQESGGGLVQAGGSLRLSCAASGSLFAIDKWGWYRQVAGNERELVAWRYSPVSINYGDSVKGRFTVSGDSSRKRVYLQMNSLKPDDTAVYRCAAVISGAWYWGQGTQVTVSSVQLQESGGGLVQTGGSLRLSCAASGRSFTFSSYAMGWFRHAPGKEREFLTAITWSGDYTYYTDSVKGRSTISRDNAKNTVYLQLNNLKPEDTAVYYCAAKFSQVSAFFATVSEYEYWGQGTQVTVSS
Q: For B11, which Kd [4] is on record?
A: The Kd was 0.902 nM.

Q: What about the Kd [5] of the same binder?
A: The Kd was 1.07 nM.

Q: And the Kd [7]?
A: Its Kd is 0.939 nM.

Q: And the Kd [8]?
A: The Kd was 1.07 nM.

Q: What about the Kd [10] of the same binder?
A: Its Kd is 0.902 nM.

B12: A11 mIgG2a (antibody, V domains shown)
VH: VQLQESEGGWSGGGSGSGDFDYEKMANANNGAMTDNADAGKQREFVAAITSGGSINYADSVKGRFTISRDNTKKTVYLQMNSLKPEDTAVYVCNIKAHPNPWGFDNDYWGQGTQVTVSS
Q: Which results are given for B12?
A: Kd [1]: 0.0129 nM; Kd [2]: 0.0177 nM

B13: anti-IGFBP7 nanobody A07 (VHH)
VHH: B12 VH with D21G, E23D, N29I, R69T, T72A, Q114P, V115A, V117A
notes: Llama nanobody expressed in E. coli as His6-tagged protein; also called A7; not shown: His6 tag
Q: B13 was tested. Which “percent blocking” value [3] did it give?
A: Its value is no less than 50%.

B14: anti-IGFBP7 nanobody A11 (VHH)
VHH: B12 VH
notes: Llama nanobody expressed in E. coli as His6-tagged protein; also called A11 VHH; not shown: His6 tag
Q: Which “percent blocking” value [3] does the source give for B14 here?
A: The value was no less than 50%.
